Data on two molecules can be found in paper PMC11387253, “High sensitive aptasensing chronic myeloid leukemia on circular electrode-modified by single-walled carbon nanotube”.

For data set [1], the target named is T1, CD19 (Homo sapiens, UniProt P15391 20-291). The data set can be described thus: electrochemical (current-volt, SWCN-modified IDE); 10-100 nM CD19; LOD 10 nM; near saturation above 60 nM; Aptamer immobilized on APTMS-SWCN surface, PEG-COOH blocked; 30 min protein incubation; washes 10 mM PBS pH 7.4; room temperature; 0-2 V in 0.1 V steps. The note with it: protein: recombinant.

The target in a further data set is CD33 antigen (UniProt P20138 18-259). Briefly: electrochemical (current-volt, SWCN-modified IDE); 100 nM CD33; Aptamer immobilized on APTMS-SWCN surface, PEG-COOH blocked; 30 min protein incubation; washes 10 mM PBS pH 7.4; room temperature; 0-2 V in 0.1 V steps.
The target in data set [2] is T1, CD19. Briefly: electrochemical (current-volt, SWCN-modified IDE); 100 nM CD19; Aptamer immobilized on APTMS-SWCN surface, PEG-COOH blocked; 30 min protein incubation; washes 10 mM PBS pH 7.4; room temperature; 0-2 V in 0.1 V steps. Particulars: protein: recombinant.

T1 sequence (P15391 20-291): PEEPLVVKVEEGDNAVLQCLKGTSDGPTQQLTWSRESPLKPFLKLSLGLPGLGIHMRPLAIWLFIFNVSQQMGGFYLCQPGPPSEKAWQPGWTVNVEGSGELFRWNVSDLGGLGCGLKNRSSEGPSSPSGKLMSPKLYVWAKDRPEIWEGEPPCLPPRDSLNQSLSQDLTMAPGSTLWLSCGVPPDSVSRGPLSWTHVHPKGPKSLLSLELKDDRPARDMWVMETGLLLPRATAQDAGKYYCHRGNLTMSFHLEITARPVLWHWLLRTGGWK
CD33 antigen, sequence (P20138 18-259): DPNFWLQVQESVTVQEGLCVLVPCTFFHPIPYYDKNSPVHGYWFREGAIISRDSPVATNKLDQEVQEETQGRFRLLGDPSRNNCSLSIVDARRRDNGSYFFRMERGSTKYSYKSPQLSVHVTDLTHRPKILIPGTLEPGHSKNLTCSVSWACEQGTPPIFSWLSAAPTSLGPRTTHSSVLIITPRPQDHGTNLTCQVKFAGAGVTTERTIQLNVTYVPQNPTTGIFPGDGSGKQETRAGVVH

B1: CD19 aptamer (ssDNA)
DNA: TGCGTGTGTAGTGTGTCTGTTCTCCTTTTTTTGGTTGCTGCTCTTAGGGATTTGGGCGG
modifications: 5' C6-COOH
In the case of B1, the binding result is recorded as “binds” with CD19 [1] and “no binding” in the data set with CD33 antigen.

B2: complementary aptamer (ssDNA)
DNA: ACGCACACATCACACAGACAAGAGGAAAAAAACCAACGACGAGAATCCCTAAACCCGCC
modifications: 5' C6-COOH
Consider B2, for which the binding result with CD19 [2] is reported as “no binding”.
